From the supplement of paper PMC12042874
± gives the uncertainty stated by the source.

Assay: amyloid nucleation score (Sup35N fusion, yeast selection) (log enrichment); library NNK3; higher = more nucleation; inactive = no reads after selection
Summary of the method: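 The nucleation score is a DiMSum log enrichment of output over input reads, centred on the mode score of non-aggregating sequences. Sequences under 100 input reads were excluded, and reads came from Illumina sequencing of plasmid inserts. Psi-negative yeast expressing Sup35N fused to peptides of 20 random codons were induced with 100 μM copper sulfate for 24 hours and grown 7 days at 30°C on medium lacking adenine and uracil. Random libraries had three technical output replicates.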

Row | Substance | amyloid nucleation score
1 | LCVRYDMSEGLRKGWWYGVG | inactive
2 | RTRTCRYFLIVYSVVCLMSI | inactive
3 | NVDVYVGVPAQVGFVILFWT | -0.241 ± 0.61
4 | GEMVFGVVWIVELETFCIPI | inactive
5 | LLWEWYFI | inactive
6 | STVTDTYRLDTWTTWETDRG | 1.98 ± 0.095
7 | LFVMGRFVSFALFTWKTDNV | inactive
8 | KGTMVQTVKSVWLGEHIVLA | inactive
9 | IGTSAWLEKRASLLVCMKKA | inactive
10 | TVHSHKWCSLVGGPIRISWT | inactive
11 | GRALNWTG | inactive
12 | LRLQIEKTAKNMFEYKAG | inactive
13 | DICLSYIFLL | 0.84 ± 0.17
14 | PFWELYKDFSSICRLTQEGY | inactive
15 | TCRHPIPASLARSAAAVLVW | inactive
16 | LRFRAQNTYEGPYTVGPVWS | inactive
17 | GGLHSGVGKMAYELNMYS | inactive
18 | SRQPRCALVVDVPP | inactive
19 | VMQQYLYNLCCL | 2.83 ± 0.052
20 | PCVYWSLNCSVVIIFSTRLL | inactive
21 | CECVGFRSRYM | 0.038 ± 0.3
22 | YSSFAANSCFLERVEVKSDL | inactive
23 | MWVNATSSV | inactive
24 | PLSLDFVDVARFSGRTGCWF | inactive

Row | Substance | amyloid nucleation score
25 | RPFGLAVTRWAPSFAGSRTS | inactive
26 | TRCSG | inactive
27 | WWPLSLGNNVGPLHCRSRWE | inactive
28 | WDLRSCCDNVSTFEL | inactive
29 | LQNVGD | inactive
30 | YLMVSVNFFSYVLSESRMCG | 0.85 ± 0.12
31 | FELSNVHGSLNRAKV | -0.526 ± 0.8
32 | MIRMIMLSRSDRPGVSRKLD | inactive
33 | QQVLVVQNKCEWGRHIA | inactive
34 | SGFYSLIVYNGFERALFVGS | inactive
35 | QYLFCVVGGWIVRYLWPWML | inactive
36 | FCALALTQMLINMAH | inactive
37 | DGHGRRHSRVQIRGIVACSD | inactive
38 | IHTQAFMGMFSLHWNHVFDL | inactive
39 | QDWEMVN | inactive
40 | EVHLSINEINLYVIEDEGSL | 0.013 ± 0.32
41 | QFSRPGIFNFHRWDSRYRAA | inactive
42 | YQERL | inactive
43 | FIVYMSTHRA | 1.67 ± 0.11
44 | SHVNRVRSLYVGE | inactive
45 | SRSINCFPMLILLVL | inactive
46 | SYMLNSCSWRTK | inactive
47 | TQGSLTILLGLVTEMLCAYS | inactive
48 | RTIQFPS | inactive

Row | Substance | amyloid nucleation score
49 | VLTSYGRNRH | inactive
50 | SNLRMRKNGVVDDIWPDERL | -0.802 ± 1.3
51 | GSDEEESLNCSYASSLTSVC | inactive
52 | AISYYYEHARLGWYGVELRP | inactive
53 | ISCRMYLCCQVLTSSCTWSH | 1.34 ± 0.11
54 | PDVFYILVTALWDVRNSNSF | inactive
55 | LSMTGV | inactive
56 | GLLLVIFNGFGFNDYEEFGM | inactive
57 | EQVFRYIL | inactive
58 | VKLALRTAFVGSQVYRILRA | -0.076 ± 0.88
59 | DLSRTSAVSVRKRVCVFSLH | inactive
60 | GIFCGLTGLIDGMRTQHSEL | 0.816 ± 0.12
61 | NSLMYFRGKFLFSIYNCYVH | inactive
62 | ADIDLVGVDCPWCGGLESFP | -0.342 ± 1.2
63 | AVTDTNLLLFDVGYESLVHS | inactive
64 | FKGTTMIGRYINRVVMWAWS | inactive
65 | KFLRVFVKRTLESLRRVTSV | inactive
66 | CIVLLLTPSLGDWYTEDDFL | inactive
67 | TKGNCSAHPRRL | -0.581 ± 1.4
68 | SSGPIRLERMDYWHHWGATL | inactive
69 | QLSHKACLWLSCSSGIPLGS | inactive
70 | NTRLSMAF | inactive
71 | IDDQLCQ | inactive
72 | TSYYIYTVSFDGCCSNLRTV | 1.56 ± 0.13

Row | Substance | amyloid nucleation score
73 | HVSVFMCLCTVDTR | 1.33 ± 0.078
74 | EMLSIENGRFTKCKLGECVR | -0.137 ± 0.52
75 | TSNFCPFTVQN | -0.477 ± 0.8
76 | LEESFSKNLSKSFYIQ | inactive
77 | QALYDWILWNHWTTKVGPVA | inactive
78 | SKVRICKDKGWSG | inactive
79 | WGMTNSETGLVGWSLSKLLG | inactive
80 | YNAYLKENLILLYLCRSSRE | 2.17 ± 0.063
81 | HPYSNVWMSL | inactive
82 | RYVEWYLR | inactive
83 | CNKSFRLYEMM | inactive
84 | VLKFFLTAMVD | inactive
85 | CDSWAYCRGCFRFML | -0.092 ± 1.1
86 | ELLWGPMGSNWKSLVVYFSH | inactive
87 | VVYTGTNGRLQDRA | inactive
88 | SMSSTSYIGSSLVMIARNKF | inactive
89 | ARICVRAFKETCDYKLGCST | 0.052 ± 0.66
90 | TLNLVSSTICLFR | inactive
91 | NELVLKYRSTVVLVKLW | inactive
92 | ECLKVRW | inactive
93 | EYIAI | inactive
94 | SCISKWST | inactive
95 | MDVKKRQSSGVALRFELLDG | inactive
96 | RGIANCPHLCIAYLMLS | inactive

Row | Substance | amyloid nucleation score
97 | SVKLKLGLCFPLYVSGFGLL | inactive
98 | NRQFSDSLYRRACAMKEDCL | 0.643 ± 0.2
99 | TYTYIGIKAFCDLYRSKMGV | inactive
100 | KIGGVYVLVS | inactive
101 | WRRWQSRCGSLLRYSKETLN | inactive
102 | KGWLSSWVA | inactive
103 | YSGWTPKLAVH | inactive
104 | NFWVIPQ | inactive
105 | LEWERPS | inactive
106 | EFGLRWMS | 0.447 ± 0.34
107 | CLSLLNFDVCVMRSVVRVFA | inactive
108 | FCRPNSWI | 0.53 ± 0.38
109 | LVFYMFAFITFVIYMMLIFY | 0.163 ± 0.29
110 | NSRRCRNFASHRWPPEFRNS | inactive
111 | SLLMYCRNTVSMSNNLSRHR | 1.39 ± 0.11
112 | YFCGAVEESERLRGMEGNPD | 0.84 ± 0.2
113 | SYANIWVIHKLDGFMESSLL | inactive
114 | ILMPKTVVTVYISNMCDYSQ | 2.58 ± 0.071
115 | NWCILTLNGVSGRIRLPCWS | 0.405 ± 0.19
116 | GFHLGFHGWNCKLAK | -0.349 ± 0.49
117 | LINNSEASLIHYIYGRGNVQ | -0.664 ± 1.9
118 | VCANLSWPFLSNTLLFVCLG | inactive
119 | IPRVAWQSYILTSQ | inactive
120 | PSHPVPLFHE | inactive

Row | Substance | amyloid nucleation score
121 | IRRCPGMKVCWLYLKC | inactive
122 | IHILTKVWFSCVRRSLS | inactive
123 | KTRSAMRDLVVSFWYF | 1.65 ± 0.075
124 | SKFFQQPWL | inactive
125 | YQGYRFNC | inactive
126 | GLKLCCV | inactive
127 | GRYHDGAAQWGRHNVFRSSA | inactive
128 | DCGATSLKTMASGLRMKRTS | inactive
129 | SYQLCACK | inactive
130 | TVSGQLIT | inactive
131 | AFPCFIVY | inactive
132 | NNCSRICM | inactive
133 | ERFIKN | inactive
134 | IPSNHSINRCYLDIWAQFLG | inactive
135 | GINHNGRVECNRFKMNY | inactive
136 | TREIIYRDGQALQIAGWVSP | inactive
137 | CRKNRSFGDGDLKFCANLNC | inactive
138 | TLWCNLSSGMMNFPTASRNL | 1 ± 0.091
139 | FIYSFLSYHIWTFKPPVVVG | inactive
140 | VYMVTDRGR | inactive
141 | ILWMVSMLRYIIEG | inactive
142 | RDSQRSVRVTAIDG | inactive
143 | PMCFSSHRFGTCRINWHVPG | inactive
144 | NTTFS | inactive

Row | Substance | amyloid nucleation score
145 | SWSGCGLVPSSVSWGYGTCV | -0.47 ± 1.9
146 | LLKPTVRCKPRLK | inactive
147 | RSQALFLNWTCDCGGYINQI | 1.01 ± 0.21
148 | AAEPEVDNSYTAGDSGTRGT | inactive
149 | INTGMASGSSGTYVSAGIEA | inactive
150 | YNANFFWYLADGIFDA | inactive
151 | KRVRGLALTQIY | 0.159 ± 0.45
152 | FLANPWCIVARLCSNHVIVH | inactive
153 | ASTMDW | inactive
154 | SVLRYE | inactive
155 | VQKSMR | inactive
156 | RLVFNLGGYFLKWCIDCFIR | inactive
157 | KPGIRYYFISM | 1.52 ± 0.12
158 | HYLYRNCNVAVTVRSLTV | inactive
159 | MHFRTSDIPTTLELGLLGWP | 0.096 ± 0.47
160 | LPAWKKTAFYFRYHGPFVRS | inactive
161 | QSIARWTVLSFSWRTTSRKS | -0.416 ± 1.2
162 | KFTFMQIKISPFDTCIQGWW | -0.067 ± 0.4
163 | MYVSV | inactive
